Measurements taken from the nanobody polyreactivity screen of Harvey et al. (2022).

Assay: yeast display, Sf9 membrane polyspecificity reagent, FACS + sequencing; frameworks hold sequencing errors
In short: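 Sorting gates, low and high (top ~1%), were placed on anti-HA fluorescence to track expression and on streptavidin fluorescence to track reagent binding. A clone's polyreactivity label is taken from the gate it came out of. The reagent was 10% biotinylated, detergent-solubilized Sf9 membrane, applied for 1 hour at 4 °C to galactose-induced yeast display cells.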

Sequence	polyreactivity (PSR sort gate)
QVQLVESGGGLVQAGGSLRLICAASGGIFDFYAMGWYRQAPGKERELVAAITRSGSSTFYADSVKGRFTISRDNAKNTVYLQMNSLKPEDTAVYYCAAPYYYFAVYYGYIFEYDYWGQGTQVTVSS	low polyreactivity
QVQLVESGGGLVQAGGSLRLICAASGGISLYYVKGWYRQAPGKERELVADISGDDSTNYADSVKGRFTISRDNAKNTVYLQMNSLKPEDTAVYYSAAVPGLFYLPYDYWGQGTQVTVSS	low polyreactivity
QVQLVESGGGLVQAGGSLRLICAASGGTFRYYTMVWYRQAPGKERELVAAITRGGRTYYADSVKGRFTISRDNAKNTVYIQMNSLKPEDTAVYYCAGVRPRSPVSYENDYWGQGTQVTVSS	high polyreactivity
QVQLVESGGGLVQAGGSLRLICAASGIFSYYARGWYRQAPGKERELVATISRRGSSTYYADSVKGRFTISRDNAKNTVYLQMNSLKPEDTAVYYCNADIGWGRFSQSFDYWGQGTQVTVSS	low polyreactivity
QVQLVESGGGLVQAGGSLRLICAASGIIFDPNAMGWYRQAPGKERELVAAITHTGSTSYADSVKGRFTISRDNAKNTVYLQMNRLNPEDTAVYYCAAGTWVRAWYRYWYDFEYWGQGTQVTVSS	high polyreactivity
QVQLVESGGGLVQAGGSLRLICAASGIIFFDYAMGWYRQAPGKEREMVAAISSGGGNTYYADSVKGRFTISRDNAKNTVYLQMNSLKPEDTAVYYCAAEPYIYGEQGAYDYWGQGTQVTVSS	low polyreactivity
QVQLVESGGGLVQAGGSLRLICAASGIIFNYNAMGWYRQAPGNERELVATISSGDSTNYADSVKGRFTISRDNAKNTVYLQMNSLKPEDTAVYYCAAESPSVFEGYAQLYIILEDYWGQGTQVTVSS	low polyreactivity
QVQLVESGGGLVQAGGSLRLICAASGIIFPFYVMGWYRQAPGKERELVAAITWSGDGTYYADSVKGRFTISRDNAKNTVYLQMNSLKPEDTAVYYCAAQWYYGGVKYYYWGQGTIVTVSS	low polyreactivity
QVQLVESGGGLVQAGGSLRLICAASGIILAYAMGWYRQAPGKERELVAAISGRAGSTYYADSVKGRFTISRDNAKNTVYLHMNSLTPEDTAVYYCAKRISYLPVEMDYWGQGTQVTVSS	low polyreactivity
QVQLVESGGGLVQAGGSLRLICAASGIILGHKAMGWYRQAPGKERELVATITTRGGSTYYADSVKGRFTISRDNAKNTVYLQMNSLKPEDTAVFYCAARPYKSLHYWYDYWGQGTQVTVSS	low polyreactivity
QVQLVESGGGLVQAGGSLRLICAASGITFPHYAMGWYRQAPGKEREYVAAISKRAGSTYYADSVKGRFTISLDNAKNTVYLQMNSLKPEDTSVYYCAADDRYYSPYGFKYWGQCTQVTVSS	high polyreactivity
QVQLVESGGGLVQAGGSLRLICAASGITFPINTKGWYRQAPGKERELVAGIDWTGGSTYYADSVKGRFTISRDNAKNTVYLQMNSLKPEDTAVYYCAAEFFREGSPRAGSKMDYWGQGTQVTVSS	low polyreactivity
QVQLVESGGGLVQAGGSLRLICAASGITFSVYTMGWYRQAPGKERELVAAIDSDGITNYADSVKGRFTISRDNAKNTVYLQLNSLKPEDTAVYYCAKQSGRADGVSGFDYWGQGTQVTVSS	low polyreactivity
QVQLVESGGGLVQAGGSLRLICAASGITFYIYGMGWYRQAPGKERELVAAITSGGSTYYADSVKGRFTISRDNAKNTVYLQMNSLKPEDTAVYYCAAGRYYGKGYYYWGQGTQVTVSS	high polyreactivity
QVQLVESGGGLVQAGGSLRLICAASGITFYRYDMGWYRQAPGKERELVAAISTRGGSTYYADSVKGRFTISRDNAKNTVYLQMNSLKPEDTAVYYCAKERVGTSLPFKDYYWGQGTQVTVSS	low polyreactivity
QVQLVESGGGLVQAGGSLRLICAASGITTRSNAMGWYRQAPGKERDFVAAITSRGGSTYYAYSVKGRFTISRDNAKNTVYLQMNSLKPEDTAVYYCAKGKYPDKKSRHVTLYDYWGQGTQVTVSS	high polyreactivity
QVQLVESGGGLVQAGGSLRLICAASGITYRYAMGWYRQAPGKERELVAAITSSGASTYYADSVKGRFTISRDNAKNTVYLQMNSLKPEDTAVYYCATPLRKVYGGYVYWGQGTQVTVSS	low polyreactivity
QVQLVESGGGLVQAGGSLRLICAASGLIFGKYAMGWYRQAPGKEREFVAAITRSGGSTYYADSVKGRFTISRDNAKNTVYLQMNSLKPEDTAVYYCAAYSLKYYNGYDYWGQGTQVTVSS	high polyreactivity
QVQLVESGGGLVQAGGSLRLICAASGLIFYRNAMGWYRQAPGKERELVAAISSGGRTYYADSVKGRFTISRDNEKNTVYLQMNSLKPEDTAVYYCAASYWKPHRESGYDYWGQGTQVTVSS	high polyreactivity
QVQLVESGGGLVQAGGSLRLICAASGLTFDTYSMGWYRQAPGKERELVAAISIGGRTNYADSVKGRFTISRDNAKNTVYLQMNSLKPEDTAVYYCARVFRYNSYYLPYDYWGQGTQVTVSS	high polyreactivity
QVQLVESGGGLVQAGGSLRLICAASGLTFFSYAMGWYRQATGKEREFVAAITRRGGRTYYADSVKGRFTISRENANNTVYLQMNSLKPEDTAVYYCNAVPVLISVYRMEYWGQGTQVNVSS	high polyreactivity
QVQLVESGGGLVQAGGSLRLICAASGLTFLYYTMVWYRQEPGNERELVAAITSGASTNYADSVKGRFTISRDNAKNTVYLQMNSLIPEDTAVYYCAARYVGPFAWYSGYDYWGQGTQVTVSS	low polyreactivity

Sequence	polyreactivity (PSR sort gate)
QVQLVESGGGLVQAGGSLRLICAASGLTFVHNAMGWYRQAPGKERELVAAISSSGGRTYYADSVKARFTISRDNAKNTVYLQMNSLKPEDTAVYYCNKAAFNYYLYGYWGQGTQVTVSS	high polyreactivity
QVQLVESGGGLVQAGGSLRLICAASGLTFVPNAMGWYRQAPGKERELVAGITSAGSTYYADSVKGRFTISRDNAKNTVYLQMNSLKPEDTAVYYCAKQFYRGFRYGYWGQGTQVTVSS	high polyreactivity
QVQLVESGGGLVQAGGSLRLICAASGNSYIYNAMGSYRQAPGKEMELVAAISSRGGTTSDAVSVKGRFTISRDHAKNTVYFQMNSLKPEDTAVYYCAARQVVPSYRYPYGYWGQGTQVTVSS	high polyreactivity
QVQLVESGGGLVQAGGSLRLICAASGNTFVRYYMGWYRQAPGKEREFVAAITASGGSTFADSVKGRFTISRDNAKNTVYLQMNSLKPEDTAVYYCNAGNSSTGVDRYDYWGQGTQVSVSS	low polyreactivity
QVQLVESGGGLVQAGGSLRLICAASGNTLIVNAMGWYRQAPGKERELVAAITRDGRTNYADSVKGRFTISRDNAKNTVYLQMNSLKPEDTAVYYCAARLAQSTGYGYWGQGTQVTVSS	low polyreactivity
QVQLVESGGGLVQAGGSLRLICAASGRIFFTYAMGWYIQAPGKERQLVASITGSGGSTYYADSVKGRFTISRDNAKNTVYLQMNSLKPEDTAVYYCAAALFRRQLYRKFYYWGQGTQVTVSS	low polyreactivity
QVQLVESGGGLVQAGGSLRLICAASGRIFGLNAMGWYRQAPGKEREFVAAITWRGGRTYYADSVKGRFTISRDNAKNTVYLQMNSLKPEDTAVYYCAADGGSTLDYYWGQGTQVTVSS	low polyreactivity
QVQLVESGGGLVQAGGSLRLICAASGRIFGRNAMGWYRQAPGKERELVAVITWRGGSTYYADSVKGRFTISRDNAKNTVYLQMNSLKPEDTAVYYCAADTSRYYLPRYRTDYWGQGTQVTVSS	high polyreactivity
QVQLVESGGGLVQAGGSLRLICAASGRIFRANAMGWYRQAPGQERELVATITISGGSTYYADSVKGRFTISRDNAKNTVYLQMNCLKPEDTAVYYCNAGHTLTFVPRPAYYSMYYWGQGTQVTVSS	low polyreactivity
QVQLVESGGGLVQAGGSLRLICAASGRIFTSNAMGWYRQAPGKERELVAAISKSGGSTYYADSVKGRFTISRDNAKNTVYLQMNSLKPEDTAVYYCAAVPWRGFDYWGQGTQVTVSS	high polyreactivity
QVQLVESGGGLVQAGGSLRLICAASGRIFVKYAIGWYRQAPGKERELVASITSGGRTNYADSVKGRFTISPDIAKNTVYLQMNSLKPEDTAVYYCAAVWRTASTQYYYWGQGTQVTVSS	high polyreactivity
QVQLVESGGGLVQAGGSLRLICAASGRIFYINAMGWYRQAPGKERELVASITGSGGRTYYADSVKGRFTISRDNAKNTVYLQMNSLKPEDTAVYYCNADLYVGYLYYLYDYWGQGTQVTVSS	low polyreactivity
QVQLVESGGGLVQAGGSLRLICAASGRIFYRNAMGWYRQAPGKERELVAAISGATSTYYADSVKGRFTFSRDNAKNTVYLQMNSLKREDTAVYYCAAKIIWYTIRHGSAGFNYWGQGTQVTVSS	high polyreactivity
QVQLVESGGGLVQAGGSLRLICAASGRIFYSYAMGWYRQAPGKERELVAAITVSGGSTFYADSVKGRFTISRDNAKNTVYLQMNSLKPEDTAVYYCAATRFSQYDWGQGTQVTVSS	high polyreactivity
QVQLVESGGGLVQAGGSLRLICAASGRIIYCNGMGWYRQAPGKERELVAAISSGGSTYYADSVKGRFTISRDNAKNTVYLQMNCLKPEDTAVYYCAADIDYESDRYDYWGQGTQVTVSS	low polyreactivity
QVQLVESGGGLVQAGGSLRLICAASGRILYKNSMGWYRQAPAKEMQLVAAISSTAGYTYYADSLKGRFTISRDNAKNTVYLQMNSLKPEDTAVYYCAARRSGVKRRYDYWGQGTQVTVSS	low polyreactivity
QVQLVESGGGLVQAGGSLRLICAASGRISLSNAMGWYRHAPGKEREFVAAITKRSDRTYYADSVKGRFTISRDNAKNTVYLQMNSLKPEETAVYYCAAKPLFGTRDDYWGQGTQVTVSS	low polyreactivity
QVQLVESGGGLVQAGGSLRLICAASGRNCVYYAMGWYRQAPGKERELVAAITSGDSTYYADSVKGRFTISRDNAKNTVYLQMNSLKPEDTAVYYCAADHYYGSESGGFVIYYYWGQGTQVTVSS	low polyreactivity
QVQLVESGGGLVQAGGSLRLICAASGRTFAGNAMGWYRQAPGKERELVAAITWSGGSTYYADSVKGRFTISRDNAKNTVYLQMNSLKPEDTAVYYCAADSQPPHELYESIEHESWGQGTQVTVSS	low polyreactivity
QVQLVESGGGLVQAGGSLRLICAASGRTFATYAMGWYRQAPGKERELVAAISNSGGRTNYADSVKGRFTISRDNAKNTVYLLMNSLKPEDTAVFYCATKAYTSGRYYWGQGTQVTVSS	high polyreactivity
QVQLVESGGGLVQAGGSLRLICAASGRTFGPYAMGWYRQAPGKEREFVAAITWRGGRTNYADSVKGRFTISRDNAKNTVYLQMNSLKPEDTAVYYCNAVISPHQWIRGGDSWGQGTQVTVSS	low polyreactivity
